Source: article PMC3351150

Biological target: controller protein C.Esp1396I
Test: crystal structure

“controller protein C.Esp1396I (natural protein)” gave a stoichiometry N of 2.
